Laboratory results published in patent US20250115663A1 (CELLDEX THERAPEUTICS, published 2025).
Where a chain is given by its changes, count along the chain named. Each block holds one binder with its values, some of them ahead of it.

What was measured:
[1] = target: T1, kappa-sCD40-Flag fusion protein, full length ECD amino acid residues 1-173 (human, UniProt P25942 21-193); test: ELISA, kappa-sCD40-Flag fusion (~1 ug/ml) captured on anti-Flag, anti-human IgG Fc-HRP
T1 construct: also called full length sCD40; not shown: N-terminal human kappa light chain; C-terminal Flag tag
Experimental: (§1) 1 μg/ml of purified kappa-sCD40-Flag fusion proteins or CHO cell supernatants containing the sCD40 fusion proteins were captured to microtiter plates that were pre-coated with 5 μg/ml mouse anti-Flag antibody (Sigma) in PBS and blocked with 5% bovine serum albumin in PBS. Following incubation with the CD40 antibody, the microplates were washed with PBS/Tween, and incubated with a goat anti-human IgG Fc polyclonal reagent conjugated to horseradish peroxidase. After washing, the plates were developed with HRP substrate, and analyzed at OD 450-650 using a microtiter plate reader. An ELISA with a goat anti-human IgG Fab2-HRP to measure kappa chain binding was carried out in parallel to validate the sCD40 fusion protein expression from different transfections.

[2] = target: T2, kappa-sCD40-Flag fusion protein, fragment amino acids 1-94 (human, UniProt P25942 21-114); test: as above
T2 construct: also called sCD40aa 1-94; not shown: N-terminal human kappa light chain; C-terminal Flag tag
Experimental: as §1

[3] = target: T3, kappa-sCD40-Flag fusion protein, fragment amino acids 36-130 (human, UniProt P25942 56-150); test: as above
T3 construct: not shown: N-terminal human kappa light chain; C-terminal Flag tag
Experimental: as §1

[4] = target: T4, kappa-sCD40-Flag fusion protein, fragment amino acids 84-173 (human, UniProt P25942 104-193); test: as above
T4 construct: not shown: N-terminal human kappa light chain; C-terminal Flag tag
Experimental: as §1

[5] = target: T2, kappa-sCD40-Flag fusion protein, …; test: ELISA, kappa-sCD40(1-94)-Flag captured on anti-Flag antibody, detection anti-human IgG Fc-HRP; the concentration axis is taken as that of 3C3 (not said on the sheet)
Experimental: as §1

[6] = target: T5, kappa-sCD40(1-94)-Flag mutant fragment D (multiple mutations of residues 33-36) (human, UniProt P25942 21-114); test: ELISA, mutated kappa-sCD40(1-94)-Flag captured on anti-Flag
T5 construct: The text says only multiple mutations of residues 33-36 (human to mouse differences); that mutant D carries exactly these is inferred; also called D (33-36); not shown: N-terminal human kappa light chain; C-terminal Flag tag
T5 chain: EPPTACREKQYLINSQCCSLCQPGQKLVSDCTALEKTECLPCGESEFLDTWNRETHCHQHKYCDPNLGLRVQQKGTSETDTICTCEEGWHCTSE

[7] = target: T6, kappa-sCD40(1-94)-Flag point mutant E33A (human, UniProt P25942 21-114); test: as above
T6 construct: not shown: N-terminal human kappa light chain; C-terminal Flag tag
T6 chain: T5 chain with L34F, E35T, K36E

T4 sequence (P25942 104-193): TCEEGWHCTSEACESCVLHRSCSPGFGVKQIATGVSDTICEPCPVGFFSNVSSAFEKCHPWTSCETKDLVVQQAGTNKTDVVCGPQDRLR
T1 sequence (P25942 21-193): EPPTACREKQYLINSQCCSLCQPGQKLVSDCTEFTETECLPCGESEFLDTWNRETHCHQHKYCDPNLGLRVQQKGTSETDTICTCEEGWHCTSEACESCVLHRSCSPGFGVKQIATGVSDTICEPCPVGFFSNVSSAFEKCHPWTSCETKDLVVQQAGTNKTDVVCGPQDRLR
T3 sequence (P25942 56-150): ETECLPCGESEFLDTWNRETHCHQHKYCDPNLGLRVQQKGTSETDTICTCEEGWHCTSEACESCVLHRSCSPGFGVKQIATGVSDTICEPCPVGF

- Average OD [1]: 1.26 OD 450-650
- Average OD [2]: 1.8 OD 450-650
- Average OD [3]: 0.024 OD 450-650
- Average OD [4]: 0.024 OD 450-650
- EC50 (read off the curve) [5]: ~0.02 µg/mL
B1: anti-CD40 human monoclonal antibody 3C3 (antibody, human IgG2, kappa, V domains shown)
VH: QVQLVESGGGVVQPGRSLRLSCAGSGFIFSRYGMYWVRQAPGKGLEWVAVIWYDGSYKYYADSVKGRFTISRDNSKNTLYLQMNSLRAEDTAVYYCARESPWYYFDYWGQGTLVTVSS
VL: DIQMTQSPSSLSASVGDRVTITCRASQGISNYLAWYQQKPGKVPKLLIYAASTLQSGVPSRFSGSGSGTDFTLTISSLQPEDVATYYCQKYKSAPFTFGPGTKVDIKR
notes: Human IgG2, C-terminal lysine removed; also called anti-CD40 mAb 3C3; CD40 antibody 3C3

- binding result [6]: no binding
- binding result [7]: no binding
B2: anti-CD40 human monoclonal antibody 3G5 (antibody, human IgG2, V domains shown)
VH: QVQLVESGGGVVQPGKSLRLSCAASGFTFSSNGIHWVRQAPGKGLEWVAVIWSDGSNKFYADSVKGRFTISRDNSKNTLYLQMNSLRAEDTAVYYCARASGSGSYYNFFDYWGQGTLVTVSS
VL: EIVMTQSPATLSVSPGERATLSCRASQSVRSNLAWYQQKPGQAPRLLIYGASTRATGIPARFSGSGSGTEFTLTINSLQSEDFAVYYCQQHNKWITFGQGTRLEIK
notes: Human IgG2
